We go through two molecules from PMC5640651, “Interfering with the high-affinity interaction between wheat amylase trypsin inhibitor CM3 and toll-like receptor 4: in silico and biosensor-based studies” (Scientific Reports, 2017).

Holding throughout (conditions): both partners purified
The target in assay [1] is T1, human toll-like receptor 4, His-tagged (human, UniProt O00206 24-631).
T1 construct: toll-like receptor 4, human; called the extracellular domain of TLR4 in the results; described as a 100 kDa protein with isoelectric point 5.88; Coupled covalently to the carboxylate cuvette by EDC/NHS 'via the N-terminus of the poly-His tail'; also called TLR4; TLR4-His; source: pEF-BOS TLR4 plasmid, transfected in HCT-116 cell line (author contributions)
Nature of the assay: SPR; IAsys plus resonant mirror biosensor; TLR4-His immobilised; 37 °C; 20 mM PBS, no NaCl. Background: In SPR one partner is held on a chip, and binding of the other changes the refractive index at the surface.

The target in assay [2] is T1, human toll-like receptor 4, His-tagged. Nature of the assay: SPR; IAsys plus resonant mirror biosensor; TLR4-His immobilised; 37 °C; 20 mM PBS, 25 mM NaCl.
Assay [3] shares this target. Nature of the assay: SPR; IAsys plus resonant mirror biosensor; TLR4-His immobilised; 37 °C; 20 mM PBS, 50 mM NaCl.
For assay [4] the target is unchanged. Nature of the assay: SPR; IAsys plus evanescent wave/resonant mirror biosensor (the paper calls it surface plasmon resonance); TLR4-His covalently immobilised on carboxylate cuvette; 37 °C; PBS pH 7.4 with 140 mM NaCl; mono-exponential fits.
The target is the same in assay [5]. The assay is described as above. This is another data set of the same source.
Assay [6] has the same target. Described as above. This is another data set of the same source.

T1 sequence (O00206 24-631): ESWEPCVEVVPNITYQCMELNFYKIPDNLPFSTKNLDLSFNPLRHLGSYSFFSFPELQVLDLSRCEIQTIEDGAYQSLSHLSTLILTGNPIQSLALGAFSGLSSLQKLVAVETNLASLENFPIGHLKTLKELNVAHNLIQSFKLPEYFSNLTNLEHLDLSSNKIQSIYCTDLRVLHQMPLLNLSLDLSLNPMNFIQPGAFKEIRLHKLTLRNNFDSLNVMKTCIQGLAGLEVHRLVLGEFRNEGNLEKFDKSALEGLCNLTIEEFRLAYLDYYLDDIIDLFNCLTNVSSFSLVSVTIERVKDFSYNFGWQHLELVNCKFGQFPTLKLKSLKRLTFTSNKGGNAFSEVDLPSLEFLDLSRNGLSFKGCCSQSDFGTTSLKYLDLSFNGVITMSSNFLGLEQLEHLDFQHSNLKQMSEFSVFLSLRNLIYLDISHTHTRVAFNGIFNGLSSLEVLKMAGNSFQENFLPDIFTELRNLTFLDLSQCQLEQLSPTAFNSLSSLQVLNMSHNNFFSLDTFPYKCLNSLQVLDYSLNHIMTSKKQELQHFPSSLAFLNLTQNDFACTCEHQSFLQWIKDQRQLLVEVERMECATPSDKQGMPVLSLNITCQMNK

B1: wheat amylase trypsin inhibitor CM3 (natural protein, UniProt P17314 26-168, looked up)
chain: SGSCVPGVAFRTNLLPHCRDYVLQQTCGTFTPGSKLPEWMTSASIYSPGKPYLAKLYCCQELAEISQQCRCEALRYFIALPVPSQPVDPRSGNVGESGLIDLPGCPREMQWDFVRLLVAPGQCNLATIHNVRYCPAVEQPLWI
notes: also called ATI; wheat ATI CM3
In general, Kd refers to the concentration at which binding is half-saturated. In general, koff refers to the first-order rate constant of dissociation. A word on the kon: it is a measure of how fast the partners come together. By stoichiometry N is commonly meant a count of units in the complex or per binding partner. As to B1, the Kd in assay [1] came to 2.3 nM; in assay [2], 10 nM; in assay [3] it was 18 nM; in assay [4], 36 nM; in assay [5], 61 nM. Further, the koff stood at 0.0001 s⁻¹ in assay [1], 0.0004 s⁻¹ in assay [2], 0.0007 s⁻¹ in assay [3] and 0.0025 s⁻¹ in assay [5]. For the same molecule, the kon in assay [1] stood at 43000 M⁻¹ s⁻¹; in assay [2], 39000 M⁻¹ s⁻¹; in assay [3], 40000 M⁻¹ s⁻¹; in assay [5] it was 41000 M⁻¹ s⁻¹. In addition, the “stoichiometry N” value in assay [4] stood at 1.

B2: RSGNVGESGLI oligopeptide derived from wheat ATI CM3 (peptide)
peptide: RSGNVGESGLI
notes: stretch of wheat ATI CM3; also called straight peptide; StrP; source: synthetic peptide
Regarding B2, the “stoichiometry N” value in assay [4] amounted to 1. In assay [6], the Kd stood at 1400 nM, the koff came to 0.005 s⁻¹ and the kon came to 3620 M⁻¹ s⁻¹.
